From patent US20030186329A1 (Scripps Research, published 2003)
acyl = not defined here

Key:
[1] = molecular target: urokinase-type plasminogen activator (u-PA) (human, UniProt P00749 21-431, limits assumed); test: cell-based or functional assay
[2] = molecular target: tissue plasminogen activator (t-PA) (human, UniProt P00750 36-562, limits assumed); test: cell-based or functional assay
Sequence of tissue plasminogen activator (t-PA) (P00750 36-562 limits assumed): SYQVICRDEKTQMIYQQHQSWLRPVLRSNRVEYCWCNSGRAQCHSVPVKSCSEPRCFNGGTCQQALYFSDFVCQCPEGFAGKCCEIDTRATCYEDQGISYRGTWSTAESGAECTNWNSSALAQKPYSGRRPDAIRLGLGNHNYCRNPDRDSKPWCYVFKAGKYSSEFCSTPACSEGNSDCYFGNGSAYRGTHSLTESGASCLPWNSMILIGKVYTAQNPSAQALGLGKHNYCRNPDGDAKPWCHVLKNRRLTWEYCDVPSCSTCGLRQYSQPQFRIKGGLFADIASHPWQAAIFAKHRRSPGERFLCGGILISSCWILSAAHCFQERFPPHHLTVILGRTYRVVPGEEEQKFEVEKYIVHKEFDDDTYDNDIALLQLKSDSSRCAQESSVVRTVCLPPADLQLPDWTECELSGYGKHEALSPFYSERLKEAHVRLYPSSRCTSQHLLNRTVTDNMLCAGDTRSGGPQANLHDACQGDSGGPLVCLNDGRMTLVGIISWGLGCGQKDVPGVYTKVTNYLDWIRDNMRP

## LGGSGRKASLSLE [peptide LGGSGRKASLSLE]
[1]
  u-PA:t-PA Selectivity: 31
[2]
  t-PA:u-PA Selectivity: 0.032

## LGGSGRSATRDLE [peptide LGGSGRSATRDLE]
[1]
  u-PA:t-PA Selectivity: 16
[2]
  t-PA:u-PA Selectivity: 0.06

## LGGSGQRGRKALE [peptide (II) of Table 1, LGGSGQRGRKALE]
[2]
  t-PA:u-PA Selectivity: 47

B1: peptide SGRS (peptide)
peptide: acyl-SGRS-NH2
modifications: reading uncertain; also: acylated at the amino terminus (acyl group not given here)
[1]
  u-PA:t-PA Selectivity: 3.3
[2]
  t-PA:u-PA Selectivity: 0.3

B2: peptide (V) of Table 1, YGRS (peptide)
peptide: acyl-YGRS-NH2
modifications: reading uncertain; also: acylated at the amino terminus (acyl group not given here)
[2]
  t-PA:u-PA Selectivity: 17

B3: peptide SGKS (peptide)
peptide: acyl-SGKS-NH2
modifications: reading uncertain; also: acylated at the amino terminus (acyl group not given here)
[1]
  u-PA:t-PA Selectivity: 23
[2]
  t-PA:u-PA Selectivity: 0.04

## LGGSGRNAQVRLE [peptide LGGSGRNAQVRLE]
[1]
  u-PA:t-PA Selectivity: 89
[2]
  t-PA:u-PA Selectivity: 0.011

## LGGSGHYGRSGLE [peptide (IV) of Table 1, LGGSGHYGRSGLE]
[2]
  t-PA:u-PA Selectivity: 21

B4: peptide SGRSA (peptide)
peptide: acyl-SGRSA-NH2
modifications: reading uncertain; also: acylated at the amino terminus (acyl group not given here)
[1]
  u-PA:t-PA Selectivity: 20
[2]
  t-PA:u-PA Selectivity: 0.05

## LGGSGERARGALE [peptide (III) of Table 1, LGGSGERARGALE]
[2]
  t-PA:u-PA Selectivity: 13

B5: peptide (VII) of Table 1, FRGRK (peptide)
peptide: acyl-FRGRK-NH2
modifications: reading uncertain; also: acylated at the amino terminus (acyl group not given here)
[2]
  t-PA:u-PA Selectivity: 78

## KKSPGRVVGGSVAH [peptide (I), native cleavage sequence from plasminogen]
[1]
  u-PA:t-PA Selectivity: 3
[2]
  t-PA:u-PA Selectivity: 0.33

B6: peptide (VI) of Table 1, RGRK (peptide)
peptide: acyl-RGRK-NH2
modifications: reading uncertain; also: acylated at the amino terminus (acyl group not given here)
[2]
  t-PA:u-PA Selectivity: 57

## LGGRGRSANAILE [peptide LGGRGRSANAILE]
[1]
  u-PA:t-PA Selectivity: 0.019
[2]
  t-PA:u-PA Selectivity: 5.2

## LGGYGRSANAILE [peptide LGGYGRSANAILE]
[1]
  u-PA:t-PA Selectivity: 0.018
[2]
  t-PA:u-PA Selectivity: 5.7

## LGQRGRSANAILE [peptide LGQRGRSANAILE]
[1]
  u-PA:t-PA Selectivity: 0.005
[2]
  t-PA:u-PA Selectivity: 19

## LGGSGRSANAILE [peptide LGGSGRSANAILE]
[1]
  u-PA:t-PA Selectivity: 63
[2]
  t-PA:u-PA Selectivity: 0.016

B7: peptide GSGKS (peptide)
peptide: acyl-GSGKS-NH2
modifications: reading uncertain; also: acylated at the amino terminus (acyl group not given here)
[1]
  u-PA:t-PA Selectivity: 121
[2]
  t-PA:u-PA Selectivity: 0.008
